Laboratory results from US20050048066A1, “Identification of potential immunodominant acetylcholine receptor alpha subunit” (priority 2000, published 2005).

Tests used:
[1] = target: solubilized HLA-DR2 (a mix of DRB1*1501 and DRB5*0101) (human); assay: DELFIA competitive binding vs biotinylated MBP 84-102, solubilized HLA-DR2, pH 5.5
[2] = target: solubilized HLA-DR3 (a mix of DRB1*0301 and DRB3*0101) (human); assay: competition binding; parameters: unit not given beside the values
[3] = target: solubilized HLA-DR3 (a mix of DRB1*0301 and DRB3*0101) (human); assay: DELFIA competitive binding vs biotinylated MBP 84-102, solubilized HLA-DR3, pH 5.5
[4] = target: solubilized HLA-DR3 (a mix of DRB1*0301 and DRB3*0101) (human); assay: competition binding
[5] = target: solubilized HLA-DR2 (a mix of DRB1*1501 and DRB5*0101) (human); assay: competition binding

IC50 [4] | IC50 [5] | Substance | IC50 [1] | IC50 [2] | IC50 [3]
6.04 µM | 36.8 µM | AChRα peptide 195-212 (from UniProt P02708 215-232) |  | 6036 ? | 
48.9 µM |  | AChRα peptide 419-437 (from UniProt P02708 439-457) |  |  | 
2 µM |  | AChRα peptide 145-163 (from UniProt P02708 165-183) |  | 2002 ? | 

The remaining lines, values behind:

Substance | IC50 [4] | IC50 [5] | IC50 [1] | IC50 [2] | IC50 [3]
AChRα peptide 36-49 (from UniProt P02708 56-69) |  |  | 11 µM | 7299 ? | 7.3 µM
AChRα peptide 204-217 (from UniProt P02708 224-237) |  |  |  |  | 71.3 µM
AChRα peptide 310-327 (from UniProt P02708 330-347) |  | 4.19 µM |  |  | 
AChRα peptide 7-22 (from UniProt P02708 27-42) |  |  |  | 6153 ? | 6.15 µM
AChRα peptide 113-126 (from UniProt P02708 133-146) | 73 µM |  |  |  | 
